From article PMC9117659, “Phase transition and remodeling complex assembly are important for SS18-SSX oncogenic activity in synovial sarcomas” (Nature Communications, 2022)

B1: Human SS18 (residues 1-387), purified recombinant [human] / BRG1^(1-282), N-terminal 282-residue fragment of BRG1 [human] (parent complex)
chain 1: MSVAFAAPRQRGKGEITPAAIQKMLDDNNHLIQCIMDSQNKGKTSECSQYQQMLHTNLVYLATIADSNQNMQSLLPAPPTQNMPMGPGGMNQSGPPPPPRSHNMPSDGMVGGGPPAPHMQNQMNGQMPGPNHMPMQGPGPNQLNMTNSSMNMPSSSHGSMGGYNHSVPSSQSMPVQNQMTMSQGQPMGNYGPRPNMSMQPNQGPMMHQQPPSQQYNMPQGGGQHYQGQQPPMGMMGQVNQGNHMMGQRQIPPYRPPQQGPPQQYSGQEDYYGDQYSHGGQGPPEGMNQQYYPDGNSQYGQQQDAYQGPPPQQGYPPQQQQYPGQQGYPGQQQGYGPSQGGPGPQYPNYPQGQGQQYGGYRPTQPGPPQPPQQRPYGYDQGQYGNYQQ
chain 2: MSTPDPPLGGTPRPGPSPGPGPSPGAMLGPSPGPSPGSAHSMMGPSPGPPSAGHPIPTQGPGGYPQDNMHQMHKPMESMHEKGMSDDPRYNQMKGMGMRSGGHAGMGPPPSPMDQHSQGYPSPLGGSEHASSPVPASGPSSGPQMSSGPGGAPLDGADPQALGQQNRGPTPFNQNQLHQLRAQIMAYKMLARGQPLPDHLQMAVQGKRPMPGMQQQMPTLPPPSVSATGPGPGPGPGPGPGPGPAPPNYSRPHGMGGPNMPPPGPSGVPPGMPGQPPGGPPK

Variants of: B1
Test: sedimentation assay; 60 µM each protein; parent: 65; read off a plot

screen value [%] | Variant
~6 | chain 1 I32E, chain 1 L54E, chain 1 A65E
